B1: MNC2-MMAF (conjugate)
VH: EVQLVESGGGLVKPGGSLRLSCAASGFTFSGYAMSWVRQAPGKGLEWVSTISSGGTYIYYPDSVKGRFTISRDNAKNSLYLQMNSLRAEDTAVYYCARLGGDNYYEYFDVWGKGTTVTVSS
VL: DIVLTQSPASLAVSPGQRATITCRASKSVSTSGYSYMHWYQQKPGQPPKLLIYLASNLESGVPARFSGSGSGTDFTLTINPVEANDTANYYCQHSRELPFTFGGGTKVEIKRT
B2: MNC2-Deruxtecan (conjugate)
VH: B1 VH
VL: B1 VL
B3: MN20A10-MMAF (conjugate)
VH: QVQLVESGGGLVKPGGSLRLSCAASGFTFSTYAMSWIRQAPGKGLEWVASIGRAGSTYYSDSVKGRFTISRDNAKNSLYLQMNSLRAEDTAVYYCARGPIYNDYDEFAYWGQGTLVTVSS
VL: EIVLTQSPATLSLSPGERATLSCKSSQSVLYSSNQKNYLAWYQQKPGQAPRLLIYWASTRESGIPARFSGSGSGTDFTLTISSLEPEDFAVYYCHQYLSSLTFGGGTKVEIKR

Key:
[1] = tested on: high antigen (MUC1*) expressing cancer cells; assay: PrestoBlue plate reader killing assays over multiple cancer sub-types (FIGS. 38A-45D); type: cell-based; conditions: breast (T47D-MUC1*) and pancreatic (HPAF II-MUC1*) cancer cells
Method: Therefore, although seldom done, it is critically important to test anti-cancer therapeutics against both the low antigen expressing early cancer cells and the later cancer cells that express high levels of the targeted antigen. In FIGS. 38A-45D, the ability of MNC2-ADCs and MN20A10-ADCs to kill multiple cancer sub-types was tested, where the tumors were either low-medium antigen expressing cancer cells or high antigen expressing cancer cells. […] The low expressing cancer cells were killed by treatment with either MNC2-ADC or MN20A10-ADC in the high nanomolar range of ADC, which is considered druggable. The cancer cells that expressed high levels of MUC1* were killed with IC50s in the single digit nanomolar range. […]
Another method of measuring the killing activity of mAb MNC2-ADCs and mAb MN20A10-ADCs against target cancer cells including T47D breast cancer cells NCI-H1975 non-small cell lung cancer cells and HPAFII pancreatic cancer cells is to use the PrestoBlue live/dead cell assay (ThermoFisher). […] After 72 hour-120 hour incubation in a 37° C./5% CO2 incubator, cell viability was measure by fluorescence using the PrestoBlue HS assay (ThermoFisher). […] Fluorescence (Ex 560 nm/Em 590 nm) was recorded after 30-90 min. incubation using a Tecan plate reader. Percentage viability was determined by PrestoBlue HS staining and normalized to 1 μM taxol treated cells. […]

[2] = tested on: HPAF II wild-type (WT) pancreatic cancer cells; assay: xCELLigence real-time killing assay (impedance); type: cell-based, human; conditions: for ADC concentration at which essentially all the tumor cells were killed: readout 120 hours post ADC addition
Method: In this assay, impedance is measured in real-time. When the adherent cancer cells are killed and come off of the electrode surface, impedance (insulation) decreases. HPAF II wild-type (WT) pancreatic cancer cells were plated onto multi-electrode-well plates at 5,000 cells per well and allowed to adhere and grow for 24 hours before the addition of ADCs. Either MNC2-MMAE, DAR 4.1, MN20A10-MMAE, DAR 5.8, MNC2-MMAF, DAR 3.7, MN20A10-MMAF, DAR 3.8, MNC2-Deruxtecan, DAR 7.2, or MN20A10-Deruxtecan, DAR 4.6, was then added to the cancer cells. […] Taxol and Triton are added as the positive killing control. […] Taxol and Triton are added as the positive killing control. […] As indicated, essentially all the pancreatic tumor cells were killed at an MNC2-MMAE concentration of 56 nM. […] As indicated, essentially all the tumor cells were killed at an MNC2-MMAF concentration of 56 nM. […] Significant killing is measured at 120 hours at a concentration of about 56 nM. […] As indicated, essentially all the tumor cells were killed at an MN20A10-MMAE concentration of 56 nM-19 nM. […] As indicated, essentially all the tumor cells were killed at an MN20A10-MMAF concentration of 56 nM.
To assess real-time killing of target cancer cells including breast cancer cells (T47D), non-small cell lung cancer cells (NCI-H1975) and pancreatic cancer cells (HP AF II) assays were performed on an xCELLigence RTCA MP Instrument (Agilent). Target Cancer cells were seeded onto a multi-electrode well plate at a density of 5000 cells/well (100 μL of a 50,000 cells/mL stock) and incubated for 24 hr in a 37° C./5% CO2 incubator. mAb MNC2 ADCs or mAb MN20A10-ADCs were prepared as a 2× solution in corresponding growth media and 100 μL of each concentration was added to target cells. As a positive control (100% cell killing) cells were treated with either 1% triton or 1 μM Taxol instead of ADC. After 40-120 hours incubation in a 37° C./5% CO2 incubator cell killing was assessed. In this assay, impedance is measured in real-time. […]

Molecule	concentrations at which cells engineered to express more MUC1* were killed [1]	ADC concentration at which essentially all the tumor cells were killed [2] [nM]	concentration with significant killing ([2]; at 120 hours)
B1	very low nanomolar concentrations	56	
B2			about 56 nM
B3	very low nanomolar concentrations	56	

— patent US12491259B2, “Anti-variable MUC1* antibodies and uses thereof” (Minerva Biotechnologies Corporation, priority 2022, dated 2025)
